Values of other authors in article PMC10580911.

Molecular target: Tk-subtilisin (Thermococcus kodakarensis) (UniProt P58502)

Kd: 1.4 nM
Substance: Tk-subtilisin propeptide propeptide (from UniProt P58502)
